Assay results taken from patent publication US20190282704A1.
Substitutions are numbered along the chain they refer to. Numbers in names are those of the source.

B1: ZTS-361 (antibody)
heavy: QVLLVQSGAEVRTPGASVKIFCKASGYSFTSYTIHWLRQAPAQGLEWMGNINPTSGYTENNQRFKDRLTLTADTSTNTAYMELSSLRSADTAMYYCARWGFKYDGEWSFDVWGAGTTVTVSSASTTAPSVFPLAPSCGTTSGATVALACLVLGYFPEPVTVSWNSGALTSGVHTFPAVLQASGLYSLSSMVTVPSSRWLSDTFTCNVAHPPSNTKVDKTVRKTDHPPGPKPCDCPKCPPPEAAGAPSIFIFPPKPKDTLSISRTPEVTCLVVDLGPDDSDVQITWFVDNTQVYTAKTSPREEQFNSTYRVVSVLPILHQDWLKGKEFKCKVNSKSLPSPIERTISKAKGQPHEPQVYVLPPAQEELSRNKVSVTCLIKSFHPPDIAVEWEITGQPEPENNYRTTPPQLDSDGTYFVYSKLSVDRSHWQRGNTYTCSVSHEALHSHHTQKSLTQSPGK
light: EIQMTQSPSSLSASPGDRVTITCRASQGISIWLSWYQQKPGNIPKVLINKASNLHIGVPSRFSGSGSGTDFTLTISSLEPEDAATYYCLQSQTYPLTFGGGTKLEIKRSDAQPSVFLFQPSLDELHTGSASIVCILNDFYPKEVNVKWKVDGVVQNKGIQESTTEQNSKDSTYSLSSTLTMSSTEYQSHEKFSCEVTHKSLASTLVKSFQRSECQRE
B2: Feline 15H05_VH1 mouse VL (antibody, V domains shown)
VH: QVLLVQSGAEVRTPGASVKIFCKASGYSFTSYTIHWLRQAPAQGLEWMGNINPTSGYTENNQRFKDRLTLTADTSTNTAYMELSSLRSADTAMYYCARWGFKYDGEWSFDVWGAGTTVTVSS
VL: DIQMNQSPSSLSASLGDTITVTCRASQGISIWLSWYQQKPGNIPKVLINKASNLHIGVPPRFSGSGSGTHFTLTITSLQPEDIATYYCLQSQTYPLTFGGGTKLEIN
B3: Feline 15H05 1.1 K42N_V43I (antibody, V domains shown)
VH: B2 VH
VL: EIQMTQSPSSLSASPGDRVTITCRASQGISIWLSWYQQKPGNIPKLLIYKASNLHIGVPSRFSGSGSGTDFTLTISSLEPEDAATYYCLQSQTYPLTFGGGTKLEIK
B4: Feline 15H05 1.1 FW3 (antibody, V domains shown)
VH: B2 VH
VL: B3 VL with N42K, I43V, S60P, D70H, S76T, E79Q, A83I
B5: Feline 15H05 1.1 K42N (antibody, V domains shown)
VH: B2 VH
VL: B3 VL with I43V
B6: Feline 15H05 2.1 (antibody, V domains shown)
VH: B2 VH with S28G, L37V, A40S
VL: B3 VL with N42K, I43V
B7: Feline 15H05 1.3 (antibody, V domains shown)
VH: B2 VH
VL: EVVLTQSSAFLSRTLKEKATITCRASQGISIWLSWYQQKPNQAPKLLVKKASNLHIGAPSRFSGSGSGTDFTLTISSPEPEDAATYYCLQSQTYPLTFGGGTKLGDQ
B8: Feline 15H05 1.1 V43I (antibody, V domains shown)
VH: B2 VH
VL: B3 VL with N42K
B9: Feline 15H05 1.2 (antibody, V domains shown)
VH: B2 VH
VL: EITMTQSPGSLAGSPGQQVTMNCRASQGISIWLSWYQQKPGQHPKLLIYKASNLHIGVPDRFSGSGSGTDFTLTISNLQAEDVASYYCLQSQTYPLTFGGGTKLEIK
B10: Feline 15H05 1.1 L46V (antibody, V domains shown)
VH: B2 VH
VL: B3 VL with N42K, I43V, L46V
B11: Feline 15H05 1.1 FW1 (antibody, V domains shown)
VH: B2 VH
VL: B3 VL with E1D, T5N, P15L, R18T, V19I, I21V, N42K, I43V
B12: Feline 15H05 1.1 FW2_3 (antibody, V domains shown)
VH: B2 VH
VL: B2 VL with D1E, N5T, L15P, T18R, I19V, V21I, N107K
B13: Feline 15H05 1.1 FW1_3 (antibody, V domains shown)
VH: B2 VH
VL: B2 VL with N42K, I43V, V46L, N49Y, N107K
B14: Feline 15H05 3.3 (antibody, V domains shown)
VH: B2 VH with T13K, A42E
VL: B7 VL
B15: Feline 15H05 3.1 (antibody, V domains shown)
VH: B2 VH with T13K, A42E
VL: B3 VL with N42K, I43V
B16: Feline 15H05 2.2 (antibody, V domains shown)
VH: B2 VH with S28G, L37V, A40S
VL: B9 VL
B17: Feline 15H05 1.1 Y49N (antibody, V domains shown)
VH: B2 VH
VL: B3 VL with N42K, I43V, Y49N
B18: Feline 15H05 2.3 (antibody, V domains shown)
VH: B2 VH with S28G, L37V, A40S
VL: B7 VL
B19: Feline 15H05 VH2 mouse VL (antibody, V domains shown)
VH: B2 VH with S28G, L37V, A40S
VL: B2 VL
B20: Feline 15H05 1.1 FW2 (antibody, V domains shown)
VH: B2 VH
VL: B3 VL with L46V, Y49N
B21: Feline 15H05 1.1 (antibody, V domains shown)
VH: B2 VH
VL: B3 VL with N42K, I43V
B22: Feline 15H05 1.1_FW1_2 (antibody, V domains shown)
VH: B2 VH
VL: B2 VL with P60S, H70D, T76S, Q79E, I83A, N107K
B23: Feline 15H05_VH3 mouse VL (antibody, V domains shown)
VH: B2 VH with T13K, A42E
VL: B2 VL
B24: Feline 11E12 1.1 K46Q (antibody, V domains shown)
VH: QVLLVQSGAEVKKPGASVKIFCKASGYSFTYYDINWLRQAPEQGLEWMGWIFPGDGGTKYNETFKGRLTLTADTSTNTVYMELSSLRSADTAMYYCARGGTSVIRDAMDYWGQGALVTVSS
VL: EIQMTQSPSSLSASPGDRVTITCRASESVDNYGISFMHWYQQKPGQVPKLLIYRASNLESGVPSRFSGSGSGTDFTLTISSLEPEDAATYYCQQSNKDPLTFGQGT

biological target: wildtype feline IL-31 (Feline_IL31_wildtype) (feline); test: SPR (Biacore), immobilised IL-31, 1:1 fit
Sequence (chain, as listed by the source limits assumed, form in doubt): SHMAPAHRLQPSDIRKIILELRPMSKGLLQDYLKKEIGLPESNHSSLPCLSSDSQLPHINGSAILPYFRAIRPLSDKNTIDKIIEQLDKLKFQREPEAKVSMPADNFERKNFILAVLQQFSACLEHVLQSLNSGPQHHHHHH

| Kd | koff | kon | Binder |
| --- | --- | --- | --- |
| 0.474 nM | 2.18e-05 s⁻¹ | 46000 M⁻¹ s⁻¹ | B1 |
| 0.168 nM | 2.2e-05 s⁻¹ | 131000 M⁻¹ s⁻¹ | B2 |
| 9.42 nM | 0.0022 s⁻¹ | 234000 M⁻¹ s⁻¹ | B3 |
| 0.0564 nM | 1.21e-05 s⁻¹ | 214000 M⁻¹ s⁻¹ | B4 |
| 6770 nM | 0.011 s⁻¹ | 1630 M⁻¹ s⁻¹ | B5 |
| 22.3 nM | 0.00465 s⁻¹ | 208000 M⁻¹ s⁻¹ | B6 |
| 86.4 nM | 0.00328 s⁻¹ | 38000 M⁻¹ s⁻¹ | B7 |
| 13.6 nM | 0.000401 s⁻¹ | 29400 M⁻¹ s⁻¹ | B8 |
| 104 nM | 0.00147 s⁻¹ | 14100 M⁻¹ s⁻¹ | B9 |
| 22.8 nM | 0.000811 s⁻¹ | 35500 M⁻¹ s⁻¹ | B10 |
| 564 nM | 0.00286 s⁻¹ | 5060 M⁻¹ s⁻¹ | B11 |
| 123 nM | 0.00116 s⁻¹ | 9490 M⁻¹ s⁻¹ | B12 |
| 0.0674 nM | 3.02e-05 s⁻¹ | 448000 M⁻¹ s⁻¹ | B13 |
| 11.6 nM | 0.000886 s⁻¹ | 76300 M⁻¹ s⁻¹ | B14 |
| 37.1 nM | 0.00166 s⁻¹ | 44700 M⁻¹ s⁻¹ | B15 |
| 2.15 nM | 0.00195 s⁻¹ | 905000 M⁻¹ s⁻¹ | B16 |
| 39.5 nM | 0.00095 s⁻¹ | 24000 M⁻¹ s⁻¹ | B17 |
| 1.57 nM | 0.000535 s⁻¹ | 341000 M⁻¹ s⁻¹ | B18 |
| 1.61 nM | 5.47e-05 s⁻¹ | 34000 M⁻¹ s⁻¹ | B19 |
| 0.065 nM | 2.49e-05 s⁻¹ | 383000 M⁻¹ s⁻¹ | B20 |
| 13.5 nM | 0.00131 s⁻¹ | 97100 M⁻¹ s⁻¹ | B21 |
| 0.887 nM | 6.7e-06 s⁻¹ | 7560 M⁻¹ s⁻¹ | B22 |
| 0.177 nM | 1.57e-05 s⁻¹ | 88900 M⁻¹ s⁻¹ | B23 |
| 12.6 nM | 0.000145 s⁻¹ | 11500 M⁻¹ s⁻¹ | B24 |

biological target: canine IL-31 (Canine_IL31) (canine); test: SPR (Biacore), immobilised IL-31, 1:1 fit
Sequence (chain, as listed by the source limits assumed, form in doubt): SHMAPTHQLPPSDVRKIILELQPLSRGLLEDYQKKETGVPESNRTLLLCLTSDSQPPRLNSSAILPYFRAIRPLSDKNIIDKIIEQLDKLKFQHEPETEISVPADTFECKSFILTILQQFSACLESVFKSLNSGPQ

| Kd | koff | kon | Binder |
| --- | --- | --- | --- |
| 0.00246 nM | 2.66e-07 s⁻¹ | 108000 M⁻¹ s⁻¹ | B2 |
| 0.13 nM | 3.91e-07 s⁻¹ | 3000 M⁻¹ s⁻¹ | B4 |
| 1.65 nM | 0.000866 s⁻¹ | 525000 M⁻¹ s⁻¹ | B6 |
| 6.38 nM | 0.00019 s⁻¹ | 29700 M⁻¹ s⁻¹ | B7 |
| 3.48 nM | 0.000115 s⁻¹ | 33000 M⁻¹ s⁻¹ | B9 |
| 813 nM | 0.0156 s⁻¹ | 19200 M⁻¹ s⁻¹ | B11 |
| 214 nM | 0.00193 s⁻¹ | 9050 M⁻¹ s⁻¹ | B12 |
| 0.00436 nM | 2.88e-08 s⁻¹ | 6590 M⁻¹ s⁻¹ | B13 |
| 0.795 nM | 2.11e-05 s⁻¹ | 26500 M⁻¹ s⁻¹ | B15 |
| 0.393 nM | 1.09e-05 s⁻¹ | 27700 M⁻¹ s⁻¹ | B16 |
| 2.22 nM | 0.000379 s⁻¹ | 171000 M⁻¹ s⁻¹ | B19 |
| 0.000431 nM | 1.66e-07 s⁻¹ | 384000 M⁻¹ s⁻¹ | B20 |
| 0.00504 nM | 1.36e-07 s⁻¹ | 27000 M⁻¹ s⁻¹ | B21 |
| 0.263 nM | 3.82e-06 s⁻¹ | 6910 M⁻¹ s⁻¹ | B22 |
| 0.00264 nM | 2.64e-07 s⁻¹ | 100000 M⁻¹ s⁻¹ | B23 |
| 1.91 nM | 8.85e-05 s⁻¹ | 46400 M⁻¹ s⁻¹ | B24 |
